Reference: patent US20220324969A1 (MYTHIC THERAPEUTICS, published 2022)

Biological target: CD33 (Sino Biological, Cat #12238-H08H) (UniProt P20138 18-259)
Test: BLI, IgG captured on anti-human Fc sensor, 50 nM CD33, pH 7.4 vs pH 5.4

Chain of CD33 (Sino Biological, Cat #12238-H08H) (P20138 18-259 limits assumed): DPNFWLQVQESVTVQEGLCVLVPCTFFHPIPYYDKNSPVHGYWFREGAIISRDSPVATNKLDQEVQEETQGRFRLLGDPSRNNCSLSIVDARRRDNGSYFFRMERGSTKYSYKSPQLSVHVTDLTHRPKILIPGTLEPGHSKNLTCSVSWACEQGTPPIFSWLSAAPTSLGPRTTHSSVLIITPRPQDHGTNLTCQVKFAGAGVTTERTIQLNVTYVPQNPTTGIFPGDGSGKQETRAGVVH

| Binder | binding result |
| --- | --- |
| MYT2671 (antibody, V domains shown, IgG; vadastuximab VL variant #19 (L89H)) VH: QVQLVQSGAEVKKPGASVKVSCKASGYTFTNYDINWVRQAPGQGLEWIGWIYPGDGSTKYNEKFKAKATLTADTSTSTAYMELRSLRSDDTAVYYCASGYEDAMDYWGQGTTVTVSS VL: DIQMTQSPSSLSASVGDRVTINCKASQDINSYLSWFQQKPGKAPKTLIYRANRLVDGVPSRFSGSGSGQDYTLTISSLQPEDFATYYCHQYDEFPLTFGGGTKVEIK | binds |
| MYT2652 (antibody, V domains shown, IgG; vadastuximab VH combination #4 (F29H+T30H+D105H)) VH: QVQLVQSGAEVKKPGASVKVSCKASGYTHHNYDINWVRQAPGQGLEWIGWIYPGDGSTKYNEKFKAKATLTADTSTSTAYMELRSLRSDDTAVYYCASGYEDAMHYWGQGTTVTVSS VL: DIQMTQSPSSLSASVGDRVTINCKASQDINSYLSWFQQKPGKAPKTLIYRANRLVDGVPSRFSGSGSGQDYTLTISSLQPEDFATYYCLQYDEFPLTFGGGTKVEIK | binds |
| MYT2657 (antibody, V domains shown, IgG; vadastuximab VL variant #5 (D28H)) VH: QVQLVQSGAEVKKPGASVKVSCKASGYTFTNYDINWVRQAPGQGLEWIGWIYPGDGSTKYNEKFKAKATLTADTSTSTAYMELRSLRSDDTAVYYCASGYEDAMDYWGQGTTVTVSS VL: DIQMTQSPSSLSASVGDRVTINCKASQHINSYLSWFQQKPGKAPKTLIYRANRLVDGVPSRFSGSGSGQDYTLTISSLQPEDFATYYCLQYDEFPLTFGGGTKVEIK | binds |
| MYT2655 (antibody, V domains shown, IgG; vadastuximab VL variant #3 (S26H)) VH: QVQLVQSGAEVKKPGASVKVSCKASGYTFTNYDINWVRQAPGQGLEWIGWIYPGDGSTKYNEKFKAKATLTADTSTSTAYMELRSLRSDDTAVYYCASGYEDAMDYWGQGTTVTVSS VL: DIQMTQSPSSLSASVGDRVTINCKAHQDINSYLSWFQQKPGKAPKTLIYRANRLVDGVPSRFSGSGSGQDYTLTISSLQPEDFATYYCLQYDEFPLTFGGGTKVEIK | binds |
| MYT2669 (antibody, V domains shown, IgG; vadastuximab VL variant #17 (V55H)) VH: QVQLVQSGAEVKKPGASVKVSCKASGYTFTNYDINWVRQAPGQGLEWIGWIYPGDGSTKYNEKFKAKATLTADTSTSTAYMELRSLRSDDTAVYYCASGYEDAMDYWGQGTTVTVSS VL: DIQMTQSPSSLSASVGDRVTINCKASQDINSYLSWFQQKPGKAPKTLIYRANRLHDGVPSRFSGSGSGQDYTLTISSLQPEDFATYYCLQYDEFPLTFGGGTKVEIK | binds |
| MYT2651 (antibody, V domains shown, IgG; vadastuximab VH combination #3 (T30H+D105H)) VH: QVQLVQSGAEVKKPGASVKVSCKASGYTFHNYDINWVRQAPGQGLEWIGWIYPGDGSTKYNEKFKAKATLTADTSTSTAYMELRSLRSDDTAVYYCASGYEDAMHYWGQGTTVTVSS VL: DIQMTQSPSSLSASVGDRVTINCKASQDINSYLSWFQQKPGKAPKTLIYRANRLVDGVPSRFSGSGSGQDYTLTISSLQPEDFATYYCLQYDEFPLTFGGGTKVEIK | binds |
| MYT2668 (antibody, V domains shown, IgG; vadastuximab VL variant #16 (L54H)) VH: QVQLVQSGAEVKKPGASVKVSCKASGYTFTNYDINWVRQAPGQGLEWIGWIYPGDGSTKYNEKFKAKATLTADTSTSTAYMELRSLRSDDTAVYYCASGYEDAMDYWGQGTTVTVSS VL: DIQMTQSPSSLSASVGDRVTINCKASQDINSYLSWFQQKPGKAPKTLIYRANRHVDGVPSRFSGSGSGQDYTLTISSLQPEDFATYYCLQYDEFPLTFGGGTKVEIK | binds |
| MYT2664 (antibody, V domains shown, IgG; vadastuximab VL variant #12 (R50H)) VH: QVQLVQSGAEVKKPGASVKVSCKASGYTFTNYDINWVRQAPGQGLEWIGWIYPGDGSTKYNEKFKAKATLTADTSTSTAYMELRSLRSDDTAVYYCASGYEDAMDYWGQGTTVTVSS VL: DIQMTQSPSSLSASVGDRVTINCKASQDINSYLSWFQQKPGKAPKTLIYHANRLVDGVPSRFSGSGSGQDYTLTISSLQPEDFATYYCLQYDEFPLTFGGGTKVEIK | binds |
| MYT2659 (antibody, V domains shown, IgG; vadastuximab VL variant #7 (N30H)) VH: QVQLVQSGAEVKKPGASVKVSCKASGYTFTNYDINWVRQAPGQGLEWIGWIYPGDGSTKYNEKFKAKATLTADTSTSTAYMELRSLRSDDTAVYYCASGYEDAMDYWGQGTTVTVSS VL: DIQMTQSPSSLSASVGDRVTINCKASQDIHSYLSWFQQKPGKAPKTLIYRANRLVDGVPSRFSGSGSGQDYTLTISSLQPEDFATYYCLQYDEFPLTFGGGTKVEIK | binds |
| MYT2667 (antibody, V domains shown, IgG; vadastuximab VL variant #15 (R53H)) VH: QVQLVQSGAEVKKPGASVKVSCKASGYTFTNYDINWVRQAPGQGLEWIGWIYPGDGSTKYNEKFKAKATLTADTSTSTAYMELRSLRSDDTAVYYCASGYEDAMDYWGQGTTVTVSS VL: DIQMTQSPSSLSASVGDRVTINCKASQDINSYLSWFQQKPGKAPKTLIYRANHLVDGVPSRFSGSGSGQDYTLTISSLQPEDFATYYCLQYDEFPLTFGGGTKVEIK | binds |
| MYT2674 (antibody, V domains shown, IgG; vadastuximab VL variant #22 (D92H)) VH: QVQLVQSGAEVKKPGASVKVSCKASGYTFTNYDINWVRQAPGQGLEWIGWIYPGDGSTKYNEKFKAKATLTADTSTSTAYMELRSLRSDDTAVYYCASGYEDAMDYWGQGTTVTVSS VL: DIQMTQSPSSLSASVGDRVTINCKASQDINSYLSWFQQKPGKAPKTLIYRANRLVDGVPSRFSGSGSGQDYTLTISSLQPEDFATYYCLQYHEFPLTFGGGTKVEIK | binds |
| MYT2662 (antibody, V domains shown, IgG; vadastuximab VL variant #10 (L33H)) VH: QVQLVQSGAEVKKPGASVKVSCKASGYTFTNYDINWVRQAPGQGLEWIGWIYPGDGSTKYNEKFKAKATLTADTSTSTAYMELRSLRSDDTAVYYCASGYEDAMDYWGQGTTVTVSS VL: DIQMTQSPSSLSASVGDRVTINCKASQDINSYHSWFQQKPGKAPKTLIYRANRLVDGVPSRFSGSGSGQDYTLTISSLQPEDFATYYCLQYDEFPLTFGGGTKVEIK | binds |

Other lines, results leading:

| binding result | Binder |
| --- | --- |
| binds | MYT2650 (antibody, V domains shown, IgG; vadastuximab VH combination #2 (F29H+D105H)) VH: QVQLVQSGAEVKKPGASVKVSCKASGYTHTNYDINWVRQAPGQGLEWIGWIYPGDGSTKYNEKFKAKATLTADTSTSTAYMELRSLRSDDTAVYYCASGYEDAMHYWGQGTTVTVSS VL: DIQMTQSPSSLSASVGDRVTINCKASQDINSYLSWFQQKPGKAPKTLIYRANRLVDGVPSRFSGSGSGQDYTLTISSLQPEDFATYYCLQYDEFPLTFGGGTKVEIK |
| binds | MYT2653 (antibody, V domains shown, IgG; vadastuximab VL variant #1 (K24H)) VH: QVQLVQSGAEVKKPGASVKVSCKASGYTFTNYDINWVRQAPGQGLEWIGWIYPGDGSTKYNEKFKAKATLTADTSTSTAYMELRSLRSDDTAVYYCASGYEDAMDYWGQGTTVTVSS VL: DIQMTQSPSSLSASVGDRVTINCHASQDINSYLSWFQQKPGKAPKTLIYRANRLVDGVPSRFSGSGSGQDYTLTISSLQPEDFATYYCLQYDEFPLTFGGGTKVEIK |
| binds | MYT2658 (antibody, V domains shown, IgG; vadastuximab VL variant #6 (I29H)) VH: QVQLVQSGAEVKKPGASVKVSCKASGYTFTNYDINWVRQAPGQGLEWIGWIYPGDGSTKYNEKFKAKATLTADTSTSTAYMELRSLRSDDTAVYYCASGYEDAMDYWGQGTTVTVSS VL: DIQMTQSPSSLSASVGDRVTINCKASQDHNSYLSWFQQKPGKAPKTLIYRANRLVDGVPSRFSGSGSGQDYTLTISSLQPEDFATYYCLQYDEFPLTFGGGTKVEIK |
| binds | MYT2654 (antibody, V domains shown, IgG; vadastuximab VL variant #2 (A25H)) VH: QVQLVQSGAEVKKPGASVKVSCKASGYTFTNYDINWVRQAPGQGLEWIGWIYPGDGSTKYNEKFKAKATLTADTSTSTAYMELRSLRSDDTAVYYCASGYEDAMDYWGQGTTVTVSS VL: DIQMTQSPSSLSASVGDRVTINCKHSQDINSYLSWFQQKPGKAPKTLIYRANRLVDGVPSRFSGSGSGQDYTLTISSLQPEDFATYYCLQYDEFPLTFGGGTKVEIK |
| binds | MYT2666 (antibody, V domains shown, IgG; vadastuximab VL variant #14 (N52H)) VH: QVQLVQSGAEVKKPGASVKVSCKASGYTFTNYDINWVRQAPGQGLEWIGWIYPGDGSTKYNEKFKAKATLTADTSTSTAYMELRSLRSDDTAVYYCASGYEDAMDYWGQGTTVTVSS VL: DIQMTQSPSSLSASVGDRVTINCKASQDINSYLSWFQQKPGKAPKTLIYRAHRLVDGVPSRFSGSGSGQDYTLTISSLQPEDFATYYCLQYDEFPLTFGGGTKVEIK |
| binds | MYT2672 (antibody, V domains shown, IgG; vadastuximab VL variant #20 (Q90H)) VH: QVQLVQSGAEVKKPGASVKVSCKASGYTFTNYDINWVRQAPGQGLEWIGWIYPGDGSTKYNEKFKAKATLTADTSTSTAYMELRSLRSDDTAVYYCASGYEDAMDYWGQGTTVTVSS VL: DIQMTQSPSSLSASVGDRVTINCKASQDINSYLSWFQQKPGKAPKTLIYRANRLVDGVPSRFSGSGSGQDYTLTISSLQPEDFATYYCLHYDEFPLTFGGGTKVEIK |
| binds | MYT2656 (antibody, V domains shown, IgG; vadastuximab VL variant #4 (Q27H)) VH: QVQLVQSGAEVKKPGASVKVSCKASGYTFTNYDINWVRQAPGQGLEWIGWIYPGDGSTKYNEKFKAKATLTADTSTSTAYMELRSLRSDDTAVYYCASGYEDAMDYWGQGTTVTVSS VL: DIQMTQSPSSLSASVGDRVTINCKASHDINSYLSWFQQKPGKAPKTLIYRANRLVDGVPSRFSGSGSGQDYTLTISSLQPEDFATYYCLQYDEFPLTFGGGTKVEIK |
| binds | MYT2670 (antibody, V domains shown, IgG; vadastuximab VL variant #18 (D56H)) VH: QVQLVQSGAEVKKPGASVKVSCKASGYTFTNYDINWVRQAPGQGLEWIGWIYPGDGSTKYNEKFKAKATLTADTSTSTAYMELRSLRSDDTAVYYCASGYEDAMDYWGQGTTVTVSS VL: DIQMTQSPSSLSASVGDRVTINCKASQDINSYLSWFQQKPGKAPKTLIYRANRLVHGVPSRFSGSGSGQDYTLTISSLQPEDFATYYCLQYDEFPLTFGGGTKVEIK |
| binds | MYT2665 (antibody, V domains shown, IgG; vadastuximab VL variant #13 (A51H)) VH: QVQLVQSGAEVKKPGASVKVSCKASGYTFTNYDINWVRQAPGQGLEWIGWIYPGDGSTKYNEKFKAKATLTADTSTSTAYMELRSLRSDDTAVYYCASGYEDAMDYWGQGTTVTVSS VL: DIQMTQSPSSLSASVGDRVTINCKASQDINSYLSWFQQKPGKAPKTLIYRHNRLVDGVPSRFSGSGSGQDYTLTISSLQPEDFATYYCLQYDEFPLTFGGGTKVEIK |
| binds | MYT2660 (antibody, V domains shown, IgG; vadastuximab VL variant #8 (S31H)) VH: QVQLVQSGAEVKKPGASVKVSCKASGYTFTNYDINWVRQAPGQGLEWIGWIYPGDGSTKYNEKFKAKATLTADTSTSTAYMELRSLRSDDTAVYYCASGYEDAMDYWGQGTTVTVSS VL: DIQMTQSPSSLSASVGDRVTINCKASQDINHYLSWFQQKPGKAPKTLIYRANRLVDGVPSRFSGSGSGQDYTLTISSLQPEDFATYYCLQYDEFPLTFGGGTKVEIK |
